Reference: a protein production outcome set (Wang et al. 2014)

Test: label from the status in PepcDB records

Row | Sequence | protein production
1 | MTNKVKSKRIAAIDWMRGFVMIIMVLDHVSMAYNKEHLSTDSAASYIIGSPLPAFEFFTRWISHICAPVFVFLAGTALAISVERKLSRGFDSKAIDKDILLRGAFIALLDPTITSFFSGKLIFQVLYAIGIAMMCMAFFRRLSSTQLLIIAMAWILGGELVTAQFWFAGGQEQSIIVALLIGKYSSADLSISYALVPWLSVMILGWVFGRYILDYGDGKVTISPANLLFRLGFTALAAFIAIRYFNDYGNMFLLREDNSWQQWLHVSKYPPSASFIMLELGLMAVILALMIKVEQRIGVRPNGVLLVFGQTSMMFYLVHRIFLTGTATYGGLSDFTNLTNTYIISGVLLLLLFPFCIWYRSFKVKHPDSLWLKYL | failed
2 | MTNLTNYHSHCLYCDGRANMEDFIRFAISEGFSSYGISSHAPLPFSTAWTMEWDRMDDYLSEFARLKEKYADKIELAIGLEIDYLNEESHPAIPRFQELPLDYRIGSVHMLYSPQGKVVDIDTPADIFRQLIDAHFEGDLDYVVHLYYKNLLRMVELGGFDILGHADKMHYNASCYRPGLLDEPWYDALVRDYFAEIARHGYIVEINTKSYHDLGTFYPNERYFPLLKELGIRVQVNSDAHYPERINNSRAEALAALKKVGFDTVVEWHGGQWKDMPLLQLEHHHHHH | not failed
3 | MTNQHRASFPSPTRGEGRTRTALATLFLSILFLILPALAARAMDIQQVTSPKGITAWLVEDYSVPIVAVRFVFGGGSTQDPVGKEGLTNLMTGLFDEGAGPLDSEAFQVRLDDAGAEMSFEETRDGVYGSMRMLAEQRDEAFDLLRLAVNEPRFDQAPIDRIRAQILSGIIANENDPDTVAQHRWARAVYGDHPYSRSDQGTRQSIAAITKDDLKALHKAVFARGGLHVAVVGAIDAETLKKKLDMVFGDLPQNQALTPVADVEPKLAQRVEVNYDLPQTSLQLAWPGVKRKSADFFPAVLMNEILGGGTFTSRLFAEVREKRGLAYSVNSSLVNQDHADALIVTTGTRSDRAAETLGIVRDVARQLAEEGPTEAELAATKKYLIGAYAITNLDSSSSIAATLVELQLDDLGIDYMQRRAGYINAVTLDQVKAAAKKLLTAEPTIMVVGPPLAGAGKG | failed
4 | MTNTLKTSYQKTPYKLGGNGPRNVGVLTEALQNIDDNLESDIYGNGAVIEDFETKIAKILGKQSAVFFPSGTMAQQIALRIWADRKENRRVAYHPLSHLEIHEQDGLKELQQITPLLLGTANQLLTIDDIKSLREPVSSVLIELPQREIGGQLPAFEELEKISEYCHEQGISLHLDGARLWEITPFYQKSAEEICALFDSVYVSFYKGIGGIAGAILAGNDDFVQEAKIWKRRYGGDLISLYPYILSADYYFEKRIGKMAEYFEAAKGLAERFNSCSGVKTVPEVPVSNMFHVYFENSADEIGAILTKIQDETGVGISGYLQEKSADVCAFEVSVGDAFAEIPAKNLELVFRCLEKEL | not failed
5 | MTNWLIAYQGEPGAYSEIAALRFGEPLPCESFDDVFSAVTEQKADYAVIPIENSLGGSIHQNYDLLLRRPVVILAETFVKVEHCLLGLPGASVETATKAMSHPQALVQCHNFFATHPQIRAEAAYDTAGSAKMVAESRDKSALAIASKRAGELYGLDILKENLADEEWNITRFFCIAHENNPDISHLKVRPDVARQKTSIVFALPNEQGSLFRALATFALRGIDLTKIESRPSRKKAFEYLFYADFIGHREDQNVHNALENLREFATMVKVLGSYGVVNP | not failed
6 | MTNWTEIDEIAKKWIREAGARITQSMHESLTIETKSNPNDLVTNIDKETEKFFIDRIQETFPGHRILGEEGQGDKIHSLEGVVWIIDPIDGTMNFVHQQRNFAISIGIFENGEGKIGLIYDVVHDELYHAFSGRGAYMNETKLAPLKETVIEEAILAINATWVTENRRIDQSVLAPLVKRVRGTRSYGSAALELANVAAGRIDAYITMRLAPWDYAAGCVLLNEVGGTYTTIEGEPFTFLENHSVLAGNPSIHKTIFEEYLHARK | failed
7 | MTPAARLSAAIELIDTIERDRVPAAKALKEWGTAHRFAGSGDRAAIAGLVWDVLRRYASSAFLMDADTARARLIGMLRLERDMDAATMAALFDGSRFAPAPLTEAEQAALSHRSLRDAPAAIAGDYPEWLDPHLAKVFGEDRAAEAAAMASRAPLDLRVNTLKSNRDKVLRALAHLHAKPTPWSATGLRIELSADARNPGIQAEEDFIKGAVEVQDEGSQLAAQFTAAKPGEQVIDLCAGAGGKTLALAAMMQGKGRLIATDSDKRQLAPIHERLSRAGVHNADVRTPKGEADPLADISATADLVVIDAPCTGTGTWRRNPDAKWRMRPGALEIRLRDQAEVLERAVPLVKLGGRIAYITCSVLAEENGEQVRAFIGRHPEFAVVPPEQIASVLWDKAEDFAKAALQSPEGWLMTPRRTGTDGFFVSVLKKTA | failed
8 | MTPEALSFWTQADKPFLFLAACIELTNALAYGPGYVCGLPCSWDGSCSGAQHLCAATRSEDAWKVNLIGNDEVHDLYTIVGNAAKQSMARDTDPMVSTILAYEGDWRKVFKRNTMTTFYGSKGFGMAQQHMDDLMEPLSREVMQKKRAKHPFGQTRKEHHAASRLLAAHAAAAIKGEIPLAIKAMEFIQKLSAMMAHEGKPLEWTTPIGLPWSNRYHDPVTERVNLWMHDHGVRRPFRPVVADGYKKTINKNHSVNGSAPNFVHACDAAHLLRTVNAARAEGITQFALVHDSFGSLPSHAARFRQIIREEFVRMYEEHDVLTEVLEQAKCDLDEHNDKLSALVDMRADLTGKLNIKEVLNAEYAFAYPKLSEPDTKGEYADGKYKTEGTATEDYTERFQEEIQKVADDNFPGKKNVHLPWKETKEGDIAFIFKNPKKKPILTDSRGKPLKEGTVIRGGSKIRIAGVIAAWEKGAKRGVSLWPDAVRVIKLSEGFDANAAFGAAEDGFNADDYEPTNFGNDGEDADNDADDAEAGDDAFKLLEHHHHHH | not failed
9 | MTPELNLKSLGAKTPYIFEYNSQLLEAFPNPNPNLDPLITLECKEFTSLCPITSQPDFGVIFIRYIPKDKMVESKSLKLYLFSYRNHGSFHESCINTILLDLVRLLEPKYLEVYGDFASRGGIAIKPFVNYAIKEYQDFKEKRLLNAK | failed
10 | MTPETNETLKLIGSDKVQGTAVYGPDGEKIGSIERVMIEKVSGRVSYAVLSFGGFLGIGDDHYPLPWPALKYNVELGGYQVMVTVDQLERAPKYGPGSEWDWRGARKVDDYYGVALT | not failed
11 | MTPGEVRRLYFIIRTFLSYGLDELIPKMRITLPLRLWRYSLFWMPNRHKDKLLGERLRLALQELGPVWIKFGQMLSTRRDLFPPHIADQLALLQDKVAPFDGKLAKQQIEAAMGGLPVEAWFDDFEIKPLASASIAQVHTARLKSNGKEVVIKVIRPDILPVIKADLKLIYRLARWVPRLLPDGRRLRPTEVVREYEKTLIDELNLLRESANAIQLRRNFEDSPMLYIPEVYPDYCSEGMMVMERIYGIPVSDVAALEKNGTNMKLLAERGVQVFFTQVFRDSFFHADMHPGNIFVSYEHPENPKYIGIDCGIVGSLNKEDKRYLAENFIAFFNRDYRKVAELHVDSGWVPPDTNVEEFEFAIRTVCEPIFEKPLAEISFGHVLLNLFNTARRFNMEVQPQLVLLQKTLLYVEGVGRQLYPQLDLWKTAKPFLESWIKDQVGIPALVRAFKEKAPFWVEKMPELPELVYDSLRQGKYLQHSVDKIARELQSNHVRQGQSRYFLGIGATLVLSGTFLLVSRPEWGLMPGWLMAGGLIAWFVGWRKTR | failed
12 | MTPGTGSALGLLAAAVDAKAVAEIGTGCGVSGIHLLHGMRPDGVLTTVDPEPEHQQFARHAFRAAGFASNRARFIPGRALDVLPRLADAGYDLVFCDGDRLEYLDYLAESLRLLRPGGLVAFEGVFGAGRTIDSGPQPTEVLRVRELLRAVRESQELVPSLLPVGDGLLCAVKR | failed
13 | MTPPASSSPCSSSDKRNRAVPSAKALMVWRAGPDGRPLDPSQFPQDPPARRDGDGGGAEAWLNLVHPEEREAVLLLWRRALREGEEFEARYRLHRGLSGYRWALGQGRPLRGDDGEVREWIGTVVDIHDHMEAERTIALSEERLRLALDSADLGVWECTIATNQWWFSEAALRILGCPPDAETSIETVMGAIHSDDLDGLRARWHAARTGRARDRMEGEFRIQRGGGRLGWIACSARLVADDGKAVTRMLGTLRDITKTRLQREKLYHLAHFDPLTGLPNRHEMITRTQATLASGGAAGGAGAILLLDLDGFKEANDTLGQATGDALLKRIAHRLVSSLPADSLIGRVGGDEFLVVVPGVAEQWTATRIADGLYDVLTVPFVIGDRRIPLSGRIGIALAPRDGTSAQDLMTHAELALQETKTISGCVTRFFSPRLHDEARERQDMGLELRRATDNGEFELFYQPQIRLSDRAVVGAEALLRWRHPTRGVMPPAAFLHVLKRGPLAGEVGEWVVAKACADAAGLLNAGSRIRMAVNLFSAQFKAGTVDATVRRSLLESGLPAELLELEITEKVTLDRDEGILTCLKGLRDLGCGVAFDDYGTGYASLSMLKRYPLTRLKIDRAFVQHLAESPKDGAIVRAVLSLGNTFGLSVTAEGIEEEEQEKLLLGQGCDEGQGYFFGRPMPLADFIQFLARVKKNPGEFPTPA | failed
14 | MTPQDAQAFEQLLANCADEPIRSPGAIQPHGVLLTLSEPELRIQQISANVEALLGQPAAQVLGQPLEQLLGDTDGQRIREVLQLPRLSDAPPLHLAVNGARFEGLLHRHQGVLMLELEIQLEHLQPQHLKEQTENLGRLLRRLQTAKTLNELYAISVSEIQAMTGYDRVLIYRFEEEGHGQVIAEATRPTMEVFNGLFFPASDIPQQARELYRSNWLRIIPNADYQPVPLLPALRPDTQQALDLSFATLRSVSPIHCQYMKNMGVLSSMSISLLKGDQLWGLISCGNRQPLLVPHELRIACQTIGQVLSLQISAMEALDISRQREEKVTALASLDQAMRDTPDSVFDGLAQVPQLLLDLTQAGGVAIIEDKQLHCFGNCPPQDEIRALHRWLQGTGQAVFASHHLANVYPPAASYQQVASGVLAMTLPKPVDNGVLWFRPEVKENINWSGNPQKPLDLENSDAGLRLRPRTSFEIWKVEMAGISTKWSHGDRFAANDLRRSALEHDLARQVLREQQAVRARDELVAVVSHDLRNPMTVISMLCGMMQKAFSSDGPHTSRRISSAIDTMQQAASRMNNLLEDLLDTSKIEAGRYSIAPQPLDVSQMFEEAYSLLAPLALDKAIDISFHAEPDLRINADPERLFQVLSNLVGNAIKFTPKQGKVGVVAMSDGEQIVFSVRDSGEGIPTDQLPFIFDRYWTMKEGNPNGTGLGLYITQGIIHAHGGKIEAHSEVGKGSEFRFSVPRASL | failed
15 | MTPRHQRDLSRRKLLAALAGTAVAVPAAAMGAPHALATVASDNGGAAPRAAGALPLTIVNRTGSFANSSVHLYIVGNEDGKQVRVTSEGTLAPISLADNGADGFTDYAIALSGSGETRLSLPYMSGRIYVALGDKLKLKAVADGNGNAALQYPAGWVESDPNYRVLHDCAEFTHNSAGMFCNTTMVDMFSVPLSIRLTGTKDQTTGTLRDGGRARVFAAVKSVPEFERLVVDDLRVIAPGHGLDAGIFAEDYFAPYIDEVWSTYTGKDLTVTTNAGAFTGRVRGDKLTFTGPASVSFSKPSTRDVFFCDGSLAAPNDGTTGPVAAVLGAGFNRSTLVNDSAQPTTDPAAFYGSALANHYAKAIHAATEDGKAYGFAFDDVADFASYIQDTAPTGINLTLTPF | failed
16 | MTPRHQRPLARRKLLVALGGAVVAAPVAAAVAPHALAGIGPDGPAPAAAGALPLTIVNDTGSFGNADVHVYIVGNVDGRQVRVTPDGTVAPVALSDNGADGYTDYAIGLSGSGETKLSLPHLSGRIYVSLGEKLKFKVVADGAGNAALQYPAGWVESDPNYAVLHDCAEFTYNAAGMFCNTTMVDMFSVPLAIRLTGADDRTTGTVRPGGRAAVFEAVRKVEEFAPLVVDDTRVIAPGHGLDAGLFPKDYLAPYIDEVWSTYTGKDLRITTNAGTFTGRVRGDRLTFDGPAQVSFAKPSTRDVLFCDGNLAAPNDGTTGPVAAVLGAGFNRSTLVSSAEQPTTDPATFYGTALTNHYAKAVHAATEDGRAYGFAFDDVADFASYIQDTAPTGIRLTLGAFLEHHHHHH | failed
17 | MTPVLSLDMEDPIRFIDENGSFEVVKVGHNLAIHGKKIFDELAKRNLKIILDLKFCDIPSTVERSIKSWDHPAIIGFTVHSCAGYESVERALSATDKHVFVVVKLTSMEGSLEDYMDRIEKLNKLGCDFVLPGPWAKALREKIKGKILVPGIRMEVKADDQKDVVTLEEMKGIANFAVLGREIYLSENPREKIKRIKEMRL | not failed
